Key:
[1] = molecular target: the molecule itself; assay: crystal structure; free form of VAT-1 (43–393), 2.3 Å; crystals from 100 mM BisTris pH 6.0, 200 mM sodium nitrate, 22% PEG 3350, 20 °C
[2] = molecular target: the molecule itself; assay: SEC; Superdex 200 (10/30), 10 mM Tris–HCl pH 7.2, 100 mM NaCl, 0.5 mM TCEP, 8 °C; higher concentrations (loaded at 300 µM, no NADP); dimers to tetramer (dimer–dimer)
[3] = molecular target: the molecule itself; assay: SEC; Superdex 200 (10/30), 10 mM Tris–HCl pH 7.2, 100 mM NaCl, 0.5 mM TCEP, 8 °C; low concentration (samples loaded at 10, 20, 50 µM; also with 10-fold molar NADP); monomers to dimer

Row | Protein | stoichiometry N [1] | stoichiometry N [2] | stoichiometry N [3]
1 | N-truncated human VAT-1 (43–393 residues) (domain or fragment, UniProt Q99536 43-393, looked up, Written as the protomer; homodimer in both crystal forms, dimer to tetramer (dimer-dimer) in solution by SEC; also called vesicle amine transport protein-1; source: E. coli Rosetta 2 (DE3), purified (Glutathione Sepharose, HRV 3C cleavage, HiTrap SP, Superdex 200); not shown: GST, N-terminal, cleaved) ASPPLLRCLVLTGFGGYDKVKLQSRPAAPPAPGPGQLTLRLRACGLNFADLMARQGLYDRLPPLPVTPGMEGAGVVIAVGEGVSDRKAGDRVMVLNRSGMWQEEVTVPSVQTFLIPEAMTFEEAAALLVNYITAYMVLFDFGNLQPGHSVLVHMAAGGVGMAAVQLCRTVENVTVFGTASASKHEALKENGVTHPIDYHTTDYVDEIKKISPKGVDIVMDPLGGSDTAKGYNLLKPMGKVVTYGMANLLTGPKRNLMALARTWWNQFSVTALQLLQANRAVCGFHLGYLDGEVELVSGVVARLLALYNQGHIKPHIDSVWPFEKVADAMKQMQEKKNVGKVLLVPGPEKEN | 2 |  | 
2 | human VAT-1 (full-length, 1–393 residues) (natural protein, UniProt Q99536 1-393, looked up, Written as the protomer; dimer at low concentration, tetramer at 300 µM by SEC; also called vesicle amine transport protein-1; source: E. coli Rosetta 2 (DE3), purified (Glutathione Sepharose, HRV 3C cleavage, HiTrap SP, Superdex 200); not shown: GST, N-terminal, cleaved) MSDEREVAEAATGEDASSPPPKTEAASDPQHPAASEGAAAAAASPPLLRCLVLTGFGGYDKVKLQSRPAAPPAPGPGQLTLRLRACGLNFADLMARQGLYDRLPPLPVTPGMEGAGVVIAVGEGVSDRKAGDRVMVLNRSGMWQEEVTVPSVQTFLIPEAMTFEEAAALLVNYITAYMVLFDFGNLQPGHSVLVHMAAGGVGMAAVQLCRTVENVTVFGTASASKHEALKENGVTHPIDYHTTDYVDEIKKISPKGVDIVMDPLGGSDTAKGYNLLKPMGKVVTYGMANLLTGPKRNLMALARTWWNQFSVTALQLLQANRAVCGFHLGYLDGEVELVSGVVARLLALYNQGHIKPHIDSVWPFEKVADAMKQMQEKKNVGKVLLVPGPEKEN |  | 4 | 2

Source: paper PMC7822847, “Structural insights into vesicle amine transport-1 (VAT-1) as a member of the NADPH-dependent quinone oxidoreductase family” (Scientific Reports, 2021)
